# Test results from the supplement of paper PMC12636428.
# Tested on: Saccharomyces cerevisiae
# Assay: transcriptional activation domain activity (GFP:mCherry ratio, weighted mean of sorted bins, harmonized to initial dataset scale) (arbitrary fluorescence ratio units); higher = stronger transcriptional activation
# Details: beta-estradiol 1 µM; induction time 4 h
# Procedure, shortened: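 In diploid yeast carrying a GFP reporter, barcoded protein tiles fused to an estradiol-inducible synthetic transcription factor were integrated at the URA3 locus. Cultures diluted 1:5 into SC with 1 uM beta-estradiol were kept at 30 °C for 4 hours, then sorted by GFP:mCherry ratio into 8 bins before barcode sequencing. Tiles with under 50 reads were excluded. The activation activity reported here is the read-weighted mean of bin median fluorescence, averaged across barcodes and linearly rescaled to the initial dataset.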
row,Sequence,transcriptional activation domain activity
1,RPPPRPPPQTPASPSPSPTSTTPPRSPSASRASPARPHPPSGRRTRTTRAPRR,56300
2,RPPVLRLRALTALITVLILLLAAIVVLYRFSERSLLYQTAFIYQAKIPYFNSI,24500
3,RPQSKERGGRREDGAGTDEGDSSTHPSCSSHVGRQEGVFQTVQCKHYWVVKWE,49900
4,RPSGASTPVQPTPEPDNKKRRRGKGGDDAETDGKPVKKAKRGRKPKVVQEPKV,33200
5,RPSLASSTATATATTTRPAADAASTTRAPRASLAPSTKPTTTRPAVAAAATRT,33500
6,RPSLGCILFILIRYVSIIVMVVSNYGVLSTSFTEKVCERYFMIAPVFKVIQTM,50600
7,RPSSAVVHAPRSKRAALRPSAPARCPPSSSSSSSPSTSPSCRRPASPTTSTCP,30700
8,RPSSPPRRPPPSSPSPAPPSKSPATCRSKTSPWGHGRCRPRPPARAPASGTAP,45200
9,RPVLDVALAAGEEDLSSKPRCQRCRKSKKGCDRQRPCGRCRDAGIGIEGCISE,31500
10,RPWRWSFGVYVLCRTLALGGIISAFVGFSPFNEFHCDVWLRFLLVFSWFAIAS,66600
11,RPYLLLLHLLCSFFFFESISIILAIAFQLLLIRASSHMIIRMLLQVYCFLSMR,75900
12,RQAAMPKRKSPEEEDEEDEEEAPAKPAAKKAKTATAANGEKKSAGRGRPKKAA,31700
13,RQCMLYLIAYFMLQETFGTYFNVTGILQNEYYRPSFGLLPLLMRARIIHYSPL,34600
14,RQEREGYEDYEDGSRRKHKNRHSRSPSSDGEDRISRKRKSRRAKDVEDSHANS,25500
15,RQESSPRLPSPSHTQQRERNQTPCAARSSSSSPRRPRPQPQPSTSAPSSPASP,29400
16,RQIESMVAPCLVELRIWNIGAYANLCEYSTWLRLWWIRWSMYGIQFQDKTGKP,61100
17,RQLAWECLHHCSVQLRPSGATIRDSLRAAAHYVKHLAIQHKLVLVALQPFFAY,43100
18,RQLFIRGRMQTIMLDCFLELCYRGACSLSSFEHPINWFEAPSDCLIWIRRMMY,36600
19,RQLVLLQKAEVDLFYMTVALILICALCAGLCLNIAIQARGTTLLTNWTQLEFC,58300
20,RQNEKTETGKAEARTRRETGARKEHAKSGDRNAKENRNGERKQREHEKDKDGG,26000
21,RQQDSSQSDRDSSRDSRTRDARHHSRRDGERRQRAESNGNLRPAEESRRGRSE,25400

row,Sequence,transcriptional activation domain activity
1,RQRAGASGGEEARGRREGRREGGEGEGEGKTEEGTNERDGREGERREGRRRGG,37700
2,RQREGQIERRGEGRAWRTEGGARGGRRKGARREKGTGREGRRRARKKAKRDRP,27600
3,RQRKDNHKEVERRRRGNINEGINELGRIVPNGSGEKAKGAILSRAVQYIHHLK,13600
4,RQRQQNGRAPRAPRAEKPTDGFEVKEGRGERRGRGEGRGEGRGRGRGGRGRGR,13000
5,RQSTSRRSDPGPVSRVTELARSDQDTTTTKLVSRLRATAQIRVQVVLAIVFRH,53200
6,RQTEKPLRSVYCYLIWGEIFVCLVFSIICWCHLYGLFGGSFEFYFMILTLWAL,33000
7,RQYRKRKAPAPAEGEENGEVAPAAPKPKRQRKKKPAPEEGAENTDGTAAAPKP,47000
8,RRARAHAGMRTRARGGQRAEGVGGVQKARRQTAQGARGACRGREGRRAAGGRL,8470
9,RRARSVVEVAQTDDTGEEEDNNINSSNNINNKKKKIILELENGAETLEGDLLL,16500
10,RRAVRPADADEREAVARVRPRARRRLGDVRDELDPRRGRRRVHGRIWGGVVRL,68000
11,RRDALRAQQQRDTHARHGAGAARKHGQPVCVRQHRGQLHLSEPVGGAAAAAVH,66200
12,RRDCATSSDARTPARLCCSHGVGTKLDKAETSREVSAEEARALADAHGARFCE,24300
13,RRDILHRAIVFEGDAARSGTASTKWRSEVRGSARKMRPQKGSGRARLGDKKSP,15600
14,RRDSVSSSSRGQGGEKGRASSKESNNSGRQGETTSNRSQSKNRAKQTKGDKDS,15900
15,RRDVTLMGGLCLHTIQGAYLAACAYFVVPFSLVVSLGFEALLLLFCFIFIFIF,50400
16,RREERRGEDGHRHRRTRRYSEDEDEEGERRSRGKERGGEERREKRREERRDAG,16800
17,RRERKERKRARKEKDRRKRRHRRSQTDSDEEDRERHRDSRRKRSRSASRERRE,20000
18,RRGEGRRGEGRRGEGRRGEGRRGEGRRGEGRGGEGRGGRGGRGRGSSGTGTGS,28000
19,RRGSKGKQRASGNRGPGGSGGSRGWGQRTASHGKAGKGTGKRSGSNSGSHGES,37100
20,RRKEKKPRFAKKDKGSKEPVSKTCRIALRIKLCHGNICVMEVSLSVLASLVLH,53100
21,RRKRRERREEERGRDKQGEEGGGRKGGGNRKEGGGGRRGRRSRGGGGGGAEGA,27800

row,Sequence,transcriptional activation domain activity
1,RRKRRRRGGEDEQQAEVEDNDRHRSSRHHRRRRRETSEEKSPRRRATDRRRHP,34600
2,RRLAGLLRHLQHRTREMGGHIVLIADPTQVCFVLLRPIIKKPALPAELVRKFW,44800
3,RRNRRTDKKRNEKESEHEGSTRKRTSYDKDDERAHSDSRRSRHHHRKERKNRH,32100
4,RRPRAAKPGTEQPKPETEKPGSEKRPGSEKRPRGRPRKAAAKPSTEKQPSNAK,21300
5,RRRFHRRVTGCNCGVKTYKLGESYNDEFESTYLSYYACRICLLVTSLYIARFW,44500
6,RRRFRNAKYFVHFIQLVRLLNICLQFEISNAEIEEVRVGFIAWVRRYEELYYQ,42800
7,RRRGGRGAGEGGEGEQEKGEGEQEKGEGEQERGGKGSRRRGGRGAGEGGEGEQ,13900
8,RRRKSNSTKPGNAGSKPAKKNKGANSNERERESKEVDEDEDEGNGGGEGEGEE,8620
9,RRRLNYISTRGLPHFFVLLFLIGLLILIVAMRVCLHILSKSSPLFFFLLILGC,38500
10,RRRRAKSRDPERVRERSERRASRSPEKKDKSARSKSRLGRLAAGAAAAGAAAI,42800
11,RRRRKARSARLKKAEKTAAAVGQEAKPKAENAEGASVPPRRKRRRARSRKPKK,28100
12,RRRRRHEEGGRGGDRSRGRDGERSSTRHEERRHRSRDRRDDRDRDRGSERRGH,44500
13,RRRVNLLVCTCGMLISLIVVGGLGTTHRGGPFNKPVGITIVVFSYINIICFNF,45300
14,RRRWINSTIHNLFEVVLLPDLCGFCCFSMRFVVLIDLIGTLTLPVSVIYLVYL,63200
15,RRRWINSTVHNLCELIILPELFGFCCFSMRFFVFLDLLGTLILPATVVYLVYL,51600
16,RRSHRSHHSSRSRDEEGKERRSSRGEDEKRAHRSRDEDEGRRRRRSHRDRDEE,18900
17,RRSKHSSRSHRSRRHRDRSVSDENGTERRHKSERRHKHRHRSRSGGSRERRHT,47200
18,RRTPFLGVGRSEGKMRLEKFVDEIGQQREDGTDEFLVRGSKEEKTDVVTAVNH,9610
19,RRTRYLVLCVALELISSILYLYLISIFGSLHLATFPLRLGFFFLLLSRLLCTM,35100
20,RRTSSTSSPSRSSSGTRARARSRSSRSTRSAAACSPSTRRAPRPTARPSSRPS,27400
21,RRVGEVMCFQALLHFLGMLSFWYGVLRRLGFTLINFFLNRVVLLGLLAFICYE,69500

row,Sequence,transcriptional activation domain activity
1,RRVLVLVMEELGYRTDHAFRIAHRLDRLYQMALTRFLTLTAGVIDLMERIRMS,58400
2,RRVTGKVLLLVWKLGVRPRLNVFEGVVHRLAVAGCFSQIPPAVALCRRILNRI,59000
3,RRVTSMRLDTEGYVGVLGVEVDFRGRMFDLTADILVRVRYCLQSTILLLEIPL,55100
4,RRVWLKYILYFVYGIVDWVYSTSLLKTMVWLRLPLYITVGKHVLVGLVGSMWV,50000
5,RRWQWYWGCFVCACALISLFLNVEVDRYRVQQLPLIVTSFFWYLMCMGTTCVV,44600
6,RRWTRSKWLLLCTYGMMFCIGLTMLLGCLLTWFRGYLRAEVITVGFKRILIIA,47500
7,RSAPGGRAGGRDGGSSSSSSDSSDEERETDGPVRKRRRTATSGARKAAPKSRP,29200
8,RSDRDRRRKQSPESRGRRHRSRSKDARREKRKRADSEGEQSARRSRPSEHHRR,19100
9,RSEKRSEERSSRSGPTDRVEGQERGSDRERGREKRGSDRESSRRDRGGEGERA,31700
10,RSESGSPARRKKKRSSRDSEDSAGESSDSDAGARRKSRKGKDSRRDRKSKKDK,37600
11,RSGYGSRDLYEYDLIEVRRTQVETALILTGLISLMKTNRSRERYVHTEHVTGT,39500
12,RSHAGRGRSRSREKHEHHRSHHHREKRRRESEIERRDSKRAASPKSKPSENIH,27100
13,RSKAKDDDRSSDESDSKSSKSNKSKRSKHNNDSDSENGSSDEDRGSKRRKKSK,23000
14,RSKHWEMLSVLHAGMVLLTAWFFFHCIDLIIHLERARVAYGYIVVPALFDILR,46500
15,RSKSSDESSSDSDSDSGSESGSDSDTSRRKRSKSKSSSRSKSKSKSSKLRARS,10600
16,RSKVLRPFWLFLLALCYNLVHATALFYQVITLNVAVNSYSNALLTLLMSNQFV,53500
17,RSLGIVFYFGLLLSFYFEFFFSSIFSFVIIIWLYPIGFLYICLSAAIPFPLLN,65000
18,RSLLWQLSVWSFIKLMILMLFGYRMEAISILGREVMLPRGLIGLGYDSIDHCG,47800
19,RSLQLSWSILLRFFKEHFCMDRLSLTIVDLGTLGSPLIRSERNGYLRRFFQVF,46700
20,RSMLFPKPSGFKFYRDSFRYISVMACVAMLGFIATFINFIRLGIAWHLIIVRA,54400
